Results published in patent publication US20040156851A1, “HMGB1 combination therapies” (Critical Therapeutics, Inc., priority 2002, published 2004).

How the values were obtained:
RAW 264.7 cells [1] = assay: 125I-HMGB1 cell surface binding to RAW 264.7 cells; design: species or system murine; settings: 4° C., specific binding (FIG. 5A)
Description: Purified HMGB1 protein (10 μg) was radiolabeled with 0.2 mCi of carrier-free ^125I (NEN Life Science Products Inc., Boston, Mass.) using Iodo-beads (Pierce, Rockford, Ill.) according to the manufacturer's instructions. ^125I-HMGB1 protein was separated from un-reacted ^125I by gel chromatography columns (P6 Micro Bio-Spin Chromatography Columns, Bio-Rad Laboratories, Hercules, Calif.) previously equilibrated with 300 mM sodium chloride, 17.5 mM sodium citrate, pH 7.0, and 0.1% bovine serum albumin (BSA). The specific activity of the eluted HMGB1 was about 2.8×10^6 cpm/μg protein. Cell surface binding studies were performed as previously described (Yang et al., Am. J. Physiol. 275:C675-C683, 1998). […] The radioactivity in the lysate was then measured using a gamma counter. Specific binding was determined as total binding minus the radioactivity obtained in the presence of an excess amount of unlabeled HMGB1 or A box proteins.
To determine whether the HMGB1 A box acts as an antagonist by displacing HMGB1 binding, ^125I-labeled —HMGB1 was added to macrophage cultures and binding was measured at 4° C. after 2 hours. Binding assays in RAW 264.7 cells were performed as described herein. ^125I-HMGB1 binding was measured in RAW 264.7 cells plated in 24-well dishes for the times indicated in FIG. 5A. […] The specificity of binding was assessed as described in Example 1. […]

RAW 264.7 cells [2] = assay: TNF release from RAW 264.7 cells stimulated with HMGB1, mutants or B box peptides (L929 cytotoxicity bioassay); type: cell-based, murine
Description: Murine macrophage-like RAW 264.7 cells (American Type Culture Collection, Rockville, Md.) were cultured in RPMI 1640 medium (Life Technologies, Grand Island, N.Y.) supplemented with 10% fetal bovine serum (Gemini, Catabasas, Calif.), penicillin and streptomycin (Life Technologies) and were used at 90% confluence in serum-free Opti-MEM I medium (Life Technologies, Grand Island, N.Y.). […] Polymyxin B was not used in experiments of synthetic peptide studies.
TNF release was measured by a standard murine fibroblast L929 (ATCC, American Type Culture Collection, Rockville, Md.) cytotoxicity bioassay (Bianchi et al., Journal of Experimental Medicine 183:927-936, 1996) with the minimum detectable concentration of 30 pg/ml. Recombinant mouse TNF was obtained from R&D system Inc., (Minneapolis, Minn.). Murine fibroblast L929 cells (ATCC) were cultured in DMEM (Life Technologies, Grand Island, N.Y.) supplemented with 10% fetal bovine serum (Gemini, Catabasas, Calif.), penicillin (50 units/ml) and streptomycin (50 μg/ml) (Life Technologies) in a humidified incubator with 5% CO2.
The effect of the mutants on TNF release from Murine macrophage-like RAW 264.7 cells (ATCC) was carried out as follows. RAW 264.7 cells were cultured in RPMI 1640 medium (Life Technologies, Grand Island, N.Y.) supplemented with 10% fetal bovine serum (Gemini, Catabasas, Calif.), penicillin and streptomycin (Life Technologies). Polymyxin (Sigma, St. Louis, Mo.) was added at 100 units/ml to suppress the activity of any contaminating LPS. Cells were incubated with 1 μg/ml of full length (wild-type) HMGB1 and each HMGB1 mutant protein in Opti-MEM I medium for 8 hours. Conditioned supernatants (containing TNF which had been released from the cells) were collected and TNF released from the cells was measured by a standard murine fibroblast L929 (ATCC) cytotoxicity bioassay (Bianchi et al., supra) with the minimum detectable concentration of 30 pg/ml. Recombinant mouse TNF was obtained from R & D Systems Inc., (Minneapolis, Minn.) and used as control in these experiments. Data in FIG. 1 are all presented as mean±SEM unless otherwise indicated. (N=6−10).
(§1) To further examine the effect of HMGB1 B box on cytokine production, varying amounts of HMGB1 B box were evaluated for the effects on TNF, IL-1B, and IL-6 production in murine macrophage-like RAW 264.7 cells. Conditioned media were harvested and measured for TNF, IL-1β and IL-6 levels. TNF levels were measured as described herein, and IL-1β and IL-6 levels were measured using the mouse IL-1β and IL-6 enzyme-linked immunosorbent assay (ELISA) kits (R&D System Inc., Minneapolis, Minn.) and N>5 for all experiments.
The kinetics of B box-induced TNF release were also examined. TNF release and TNF mRNA expression were measured in RAW 264.7 cells induced by B box polypeptide or GST tag polypeptide only (used as a control (vector)) (10 μg/ml) for 0 to 48 hours. Supernatants were analyzed for TNF protein levels by an L929 cytotoxicity assay (N=3-5) as described herein. For mRNA measurement, cells were plated in 100 mm plates and treated in Opti-MEM I medium containing B box polypeptide or the vector alone for 0, 4, 8, or 24 hours, as indicated in FIG. 2D. The vector only sample was assayed at the 4 hour time point. Cells were scraped off the plate and total RNA was isolated using the RNAzol B method in accordance with the manufacturer's instructions (Tel-Test “B”, Inc., Friendswood, Tex.). TNF (287 bp) was measured by RNase protection assay (Ambion, Austin, Tex.). Equal loading and the integrity of RNA was verified by ethidium bromide staining of the RNA sample on an agarose-formaldehyde gel. […] TNF mRNA expression was maximal at 4 hours and decreased at 8 and 24 hours. […] A similar study was carried out measuring TNF protein released from RAW 264.7 cells 0, 4, 8, 24, 32 or 48 hours after administration of B box or vector only (GST tag), using the L929 cytotoxicity assay described herein. […]

RAW 264.7 cells [3] = assay: IL-6 release from RAW 264.7 cells (ELISA); type: cell-based, murine; settings: B box 0-10 μg/ml, 8 hours (FIG. 2C)
Description: as §1

C3H/HeJ mice = assay: Lethality and histology in C3H/HeJ mice; type: in vivo; settings: 8 hours after administration

B1: HMGB1: Recombinant full length human HMGB1, GST fusion system, SEQ ID NO:18; recombinant rat HMGB1 used in some experiments (protein, listed as Homo sapiens)
chain: MGKGDPKKPTGKMSSYAFFVQTCREEHKKKHPDASVNFSEFSKKCSERWKTMSAKEKGKFEDMAKADKARYEREMKTYIPPKGETKKKFKDPNAPKRLPSAFFLFCSEYRPKIKGEHPGLSIGDVAKKLGEMWNNTAADDKQPYEKKAAKLKEKYEKDIAAYRAKGKPDAAKKGVVKAEKSKKKKEEEEDEEDEEDEEEEEDEEDEEDEEEDDDDE
- 125I-HMGB1 binding over time (RAW 264.7 cells [1]): saturable first order binding kinetics

B2: B box: Human HMGB1 mutant containing only the B box, SEQ ID NO:20 (protein, listed as Homo sapiens)
chain: FKDPNAPKRLPSAFFLFCSEYRPKIKGEHPGLSIGDVAKKLGEMWNNTAADDKQPYEKKAAKLKEKYEKDIAAY
- TNF protein release over time (RAW 264.7 cells [2]; 10 μg/ml, 0-48 hours, compared to medium only (FIG. 2E)): stimulated TNF protein expression
- TNF release, dose response (RAW 264.7 cells [2]; B box 0-10 μg/ml, 8 hours (FIG. 2A)): increased with increased amounts of B box
- IL-6 release, dose response (RAW 264.7 cells [3]): IL-6 release from RAW 264.7 cells increased with increased amounts of B box
- histology of liver (C3H/HeJ mice): mild acute inflammatory responses, with some hepatocyte dropout and apoptosis
